Positions count from the first letter of the chain named. Names and notes keep the numbering of the source.
B1: MCUb amino-terminal domain (MCUb-NTD), MCUb 58-159 (domain or fragment, human, UniProt Q9NWR8 58-159, looked up)
chain: DEITVIYRHGLPLVTLTLPSRKERCQFVVKPMLSTVGSFLQDLQNEDKGIKTAAIFTADGNMISASTLMDILLMNDFKLVINKIAYDVQCPKREKPSNEHTA
notes: MCU dominant negative beta subunit (MCUb), Homo sapiens, GenBank NP_060388.2, N-terminal domain, residues 58-159; Theoretical monomer mass printed as 12.0098 kDa; a few vector residues probably remain after thrombin cleavage (pET-28a, NheI/XhoI); source: E. coli BL21(DE3) codon plus, purified (Ni-NTA, thrombin, SEC); not shown: 6xHis, N-terminal, cleaved
B2: Fluorescein-MCUb-NTD (MCUb 58-159 labelled with fluorescein-MTS at Cys82 and Cys147) (domain or fragment, human, UniProt Q9NWR8 58-159, looked up)
chain: B1 chain
modifications: fluorescein (fluorescein-methane thiosulfonate) on Cys82 and Cys147
notes: MCU dominant negative beta subunit (MCUb), Homo sapiens, GenBank NP_060388.2, N-terminal domain, residues 58-159; also called MCUb-NTD-fluorescein; source: E. coli BL21(DE3) codon plus, purified (Ni-NTA, thrombin, SEC); labelled with fluorescein-MTS; not shown: 6xHis, N-terminal, cleaved
B3: Red-(NHS)-MCUb-NTD (MCUb 58-159 labelled with Red-NHS on primary amines) (domain or fragment, human, UniProt Q9NWR8 58-159, looked up)
chain: B1 chain
modifications: Red-NHS dye covalently linked to primary amines
notes: MCU dominant negative beta subunit (MCUb), Homo sapiens, GenBank NP_060388.2, N-terminal domain, residues 58-159; also called Red-(NHS)-labeled MCUb-NTD; source: E. coli BL21(DE3) codon plus, purified (Ni-NTA, thrombin, SEC); labelled with the RED-NHS labeling kit (NanoTemper); not shown: 6xHis, N-terminal, cleaved
B4: MCU-NTD-D147R (MCU residues 72-189 with D147R) (domain or fragment, human, UniProt Q8NE86-1 72-189, looked up)
chain: SDDVTVVYQNGLPVISVRLPSRRERCQFTLKPISDSVGVFLRQLQEEDRGIDRVAIYSPDGVRVAASTGIDLLLLRDFKLVINDLTYHVRPPKRDLLSHENAATLNDVKTLVQQLYTT
notes: mitochondrial calcium uniporter (MCU), Homo sapiens, GenBank NP_612366.1, residues 72-189 (amino-terminal domain) with D147R in the MCU regulating acidic patch; also called D147R MCU_(72-189)
B5: MCUb-NTD-fluorescein (MCUb residues 58-159 labelled with fluorescein at Cys82 and Cys147) (domain or fragment, human, UniProt Q9NWR8 58-159, looked up)
chain: B1 chain
modifications: fluorescein (fluorescein-methane thiosulfonate) on Cys82 and Cys147
notes: MCU dominant negative beta subunit (MCUb), Homo sapiens, GenBank NP_060388.2, residues 58-159 (amino-terminal domain); Same chain as m1, with the label; also called fluorescein-MCUb-NTD; MCUb_(58-159) labeled; source: E. coli BL21(DE3) codon plus, purified (Ni-NTA, thrombin, SEC), then labelled with fluorescein-MTS
B6: Red-(NHS)-labeled MCUb-NTD (MCUb residues 58-159) (domain or fragment, human, UniProt Q9NWR8 58-159, looked up)
chain: B1 chain
modifications: Red-NHS dye covalently linked to primary amines
notes: MCU dominant negative beta subunit (MCUb), Homo sapiens, GenBank NP_060388.2, residues 58-159 (amino-terminal domain); Same chain as m1, with the label; source: E. coli BL21(DE3) codon plus, purified (Ni-NTA, thrombin, SEC), then labelled with the RED-NHS labeling kit (NanoTemper)

Columns and labels:
[1] = target: MCU amino-terminal domain (MCU-NTD), MCU residues 72-189 (human) (UniProt Q8NE86); assay: cross-linking; 1 mM BS-3, 90 min, 20 mM HEPES (pH 8.4), 150 mM NaCl, 1 mM DTT, ambient temperature; proteins at 67.5 uM, mix with 67.5 uM or 33.8 uM of each; SDS-PAGE, Coomassie
[2] = target: MCU amino-terminal domain (MCU-NTD), MCU 72-189 (human) (UniProt Q8NE86); assay: SEC-MALS; 100 uL injected at 3.0 mg mL-1 (mixed sample: final 1.5 mg mL-1 of each component); Superdex 200 Increase 10/300 GL; 20 mM Tris (pH 8.5), 150 mM NaCl, 1 mM DTT, 10 C; with 5 mM CaCl2
[3] = target: MCU amino-terminal domain (MCU-NTD), MCU 72-189 (human) (UniProt Q8NE86); assay: SEC-MALS; 100 uL injected at 3.0 mg mL-1 (mixed sample: final 1.5 mg mL-1 of each component); Superdex 200 Increase 10/300 GL; 20 mM Tris (pH 8.5), 150 mM NaCl, 1 mM DTT, 10 C; with 5 mM MgCl2
[4] = target: MCU amino-terminal domain (MCU-NTD), MCU 72-189 (human) (UniProt Q8NE86); assay: SEC-MALS; 100 uL injected at 3.0 mg mL-1 (mixed sample: 3 mg mL-1 each mixed, final 1.5 mg mL-1 of each component); Superdex 200 Increase 10/300 GL; 20 mM Tris (pH 8.5), 150 mM NaCl, 1 mM DTT, 10 C; no divalent cations
[5] = target: MCUb amino-terminal domain (MCUb-NTD), MCUb 58-159 (human) (UniProt Q9NWR8); assay: SEC-MALS; 100 uL injected at 2.0 mg mL-1; Superdex 200 Increase 10/300 GL; 20 mM Tris (pH 8.5), 150 mM NaCl, 1 mM DTT, 10 C; no divalent cations
[6] = target: MCUb amino-terminal domain (MCUb-NTD), MCUb 58-159 (human) (UniProt Q9NWR8); assay: SEC-MALS; 100 uL injected at 4.0 mg mL-1; Superdex 200 Increase 10/300 GL; 20 mM Tris (pH 8.5), 150 mM NaCl, 1 mM DTT, 10 C; no divalent cations
[7] = target: MCUb amino-terminal domain (MCUb-NTD), MCUb 58-159 (human) (UniProt Q9NWR8); assay: SEC-MALS; 100 uL injected at 3.0 mg mL-1 (mixed sample: final 1.5 mg mL-1 of each component); Superdex 200 Increase 10/300 GL; 20 mM Tris (pH 8.5), 150 mM NaCl, 1 mM DTT, 10 C; with 5 mM CaCl2
[8] = target: MCUb amino-terminal domain (MCUb-NTD), MCUb 58-159 (human) (UniProt Q9NWR8); assay: SEC-MALS; 100 uL injected at 3.0 mg mL-1 (mixed sample: final 1.5 mg mL-1 of each component); Superdex 200 Increase 10/300 GL; 20 mM Tris (pH 8.5), 150 mM NaCl, 1 mM DTT, 10 C; with 5 mM MgCl2
[9] = target: T1, MCU amino-terminal domain (MCU-NTD), MCU 72-189 (human, UniProt Q8NE86-1 72-189); assay: SEC-MALS; 100 uL injected at 3.0 mg mL-1 (mixed sample: final 1.5 mg mL-1 of each component); Superdex 200 Increase 10/300 GL; 20 mM Tris (pH 8.5), 150 mM NaCl, 1 mM DTT, 10 C; with 5 mM CaCl2; conditions: both partners purified
T1 construct: mitochondrial calcium uniporter (MCU), Homo sapiens, GenBank NP_612366.1, N-terminal domain, residues 72-189; theoretical monomer mass printed as 13.8637 kDa
T1 sequence (looked up): B4 chain with R76D

[10] = target: T1, MCU amino-terminal domain (MCU-NTD), …; assay: SEC-MALS; 100 uL injected at 3.0 mg mL-1 (mixed sample: final 1.5 mg mL-1 of each component); Superdex 200 Increase 10/300 GL; 20 mM Tris (pH 8.5), 150 mM NaCl, 1 mM DTT, 10 C; with 5 mM MgCl2; conditions: both partners purified
[11] = target: MCUb amino-terminal domain (MCUb-NTD), MCUb 58-159 (human) (UniProt Q9NWR8); assay: SEC-MALS; 100 uL injected at 3.0 mg mL-1 (mixed sample: 3 mg mL-1 each mixed, final 1.5 mg mL-1 of each component); Superdex 200 Increase 10/300 GL; 20 mM Tris (pH 8.5), 150 mM NaCl, 1 mM DTT, 10 C; no divalent cations
[12] = target: T1, MCU amino-terminal domain (MCU-NTD), …; assay: as above; conditions: both partners purified
[13] = target: T2, Fluorescein-MCU-NTD (MCU 72-189 labelled with fluorescein-MTS at Cys97) (human, UniProt Q8NE86-1 72-189, fluorescein (fluorescein-methane thiosulfonate) on Cys97); assay: other fluorescence titration; steady-state fluorescein fluorescence; ~0.1 uM fluorescein-MCU-NTD titrated with MCUb-NTD; 20 mM Tris (pH 8.5), 150 mM NaCl, 1 mM DTT, 0.0001% (v/v) NP-40, 5 mM CaCl2; 22.5 C; one-site model; conditions: both partners purified
T2 construct: mitochondrial calcium uniporter (MCU), Homo sapiens, GenBank NP_612366.1, N-terminal domain, residues 72-189; also called MCU-NTD-fluorescein; source: labelled with fluorescein-MTS
T2 sequence (looked up): B4 chain with R76D

[14] = target: T2, Fluorescein-MCU-NTD (MCU 72-189 …); assay: other fluorescence titration; steady-state fluorescein fluorescence; ~0.1 uM fluorescein-MCU-NTD titrated with MCUb-NTD; 20 mM Tris (pH 8.5), 150 mM NaCl, 1 mM DTT, 0.0001% (v/v) NP-40, 5 mM MgCl2; 22.5 C; one-site model; conditions: both partners purified
[15] = target: T3, MCU-NTD-D147R, MCU 72-189 D147R (human, UniProt Q8NE86-1 72-189, D147R); assay: other fluorescence titration; steady-state fluorescein fluorescence; ~0.1 uM fluorescein-MCUb-NTD titrated with unlabelled MCU-NTD variant; 20 mM Tris (pH 8.5), 150 mM NaCl, 1 mM DTT, 0.0001% (v/v) NP-40; 22.5 C; one-site model; conditions: both partners purified
T3 construct: mitochondrial calcium uniporter (MCU), Homo sapiens, GenBank NP_612366.1, N-terminal domain, residues 72-189, with D147R
T3 sequence (looked up): B4 chain

[16] = target: T3, MCU-NTD-D147R, MCU 72-189 D147R; assay: MST; ~0.5 uM Red-(NHS)-MCUb-NTD titrated with unlabelled MCU-NTD variant; 20 mM Tris (pH 8.5), 150 mM NaCl, 1 mM DTT, 0.05% (v/v) NP-40; 22 C; one-site model; conditions: both partners purified
[17] = target: B6; assay: MST; Red-NHS-labelled MCUb-NTD, increasing MCU-NTD or MCU-NTD-D147R; 20 mM Tris (pH 8.5), 150 mM NaCl, 1 mM DTT, 0.05% (v/v) NP-40, 22°C; one-site model; conditions: both partners purified
[18] = target: B5; assay: other fluorescence titration; steady-state fluorescein fluorescence; 0.1 uM MCUb-NTD-fluorescein titrated with MCU-NTD or MCU-NTD-D147R; 20 mM Tris (pH 8.5), 150 mM NaCl, 1 mM DTT, 0.0001% (v/v) NP-40, 22.5°C; one-site model; conditions: both partners purified
[19] = target: T4, MCU amino-terminal domain (MCU-NTD), MCU residues 72-189 (human, UniProt Q8NE86-1 72-189); assay: as above; conditions: both partners purified
T4 construct: mitochondrial calcium uniporter (MCU), Homo sapiens, GenBank NP_612366.1, residues 72-189 (amino-terminal domain); theoretical monomer mass 13.8637 kDa is printed; also called MCU_(72-189); 15N-MCU-NTD; source: 15N-labelled in M9 minimal medium for NMR
T4 sequence (looked up): B4 chain with R76D

[20] = target: T4, MCU amino-terminal domain (MCU-NTD), …; assay: MST; Red-NHS-labelled MCUb-NTD, increasing MCU-NTD or MCU-NTD-D147R; 20 mM Tris (pH 8.5), 150 mM NaCl, 1 mM DTT, 0.05% (v/v) NP-40, 22°C; one-site model; conditions: both partners purified

“MCU amino-terminal domain (MCU-NTD), MCU residues 72-189 (from UniProt Q8NE86-1 72-189) (domain or fragment)” gave a stoichiometry N [1] of 2.

Molecule “MCU amino-terminal domain (MCU-NTD), MCU 72-189 (from UniProt Q8NE86-1 72-189) (domain or fragment)” has a stoichiometry N [2] of 0.96, a stoichiometry N [3] of 1.05 and a stoichiometry N [4] of 0.98.

B1 gave a stoichiometry N [5] of 0.95, a stoichiometry N [6] of 1.02 and a stoichiometry N [7] of 0.92. The stoichiometry N [8] was 0.92, the “stoichiometry N” value [9] was 1.72 and the “stoichiometry N” value [10] was 1.61. For the same molecule, the stoichiometry N [11] was 0.97, the “stoichiometry N” value [12] was 1.68 and the Kd [13] was 90 nM. For the same molecule, the Kd [14] was 160 nM.

B2 showed a Kd [15] of 250 nM.

Molecule B3 has a Kd [16] of 11300 nM.

B4 was tested, and the “fold change of KD against MCU-NTD” value [17] was about 2 fold and the “fold change of KD against MCU-NTD” value [18] was about 2 fold.

B5 showed a Kd [19] of 133 nM.

B6 showed a Kd [20] of 4650 nM.

Source: PMC11068563, “The MCU and MCUb amino-terminal domains tightly interact: mechanisms for low conductance assembly of the mitochondrial calcium uniporter complex” (iScience, 2024)
